In US20140255405A1 (published 2014):

B1: Mab4 (antibody, human IgG1, kappa)
heavy: not shown
light: DIVLTQSPASLAVSLGQRATISCRASESVGNFGISFMNWFQQKPGQPPKLLIYTASNQGSGVPARFSGSGSGTDFSLNIHPMEEDDSAMYFCQQSKEIPWTFGGGTKVEIKRTVAAPSVFIFPPSDEQLKSGTASVVCLLNNFYPREAKVQWKVDNALQSGNSQESVTEQDSKDSTYSLSSTLTLSKADYEKHKVYACEVTHQGLSSPVTKSFNRGEC
B2: Mab4-5L5H (bispecific antibody, human IgG1, kappa)
heavy: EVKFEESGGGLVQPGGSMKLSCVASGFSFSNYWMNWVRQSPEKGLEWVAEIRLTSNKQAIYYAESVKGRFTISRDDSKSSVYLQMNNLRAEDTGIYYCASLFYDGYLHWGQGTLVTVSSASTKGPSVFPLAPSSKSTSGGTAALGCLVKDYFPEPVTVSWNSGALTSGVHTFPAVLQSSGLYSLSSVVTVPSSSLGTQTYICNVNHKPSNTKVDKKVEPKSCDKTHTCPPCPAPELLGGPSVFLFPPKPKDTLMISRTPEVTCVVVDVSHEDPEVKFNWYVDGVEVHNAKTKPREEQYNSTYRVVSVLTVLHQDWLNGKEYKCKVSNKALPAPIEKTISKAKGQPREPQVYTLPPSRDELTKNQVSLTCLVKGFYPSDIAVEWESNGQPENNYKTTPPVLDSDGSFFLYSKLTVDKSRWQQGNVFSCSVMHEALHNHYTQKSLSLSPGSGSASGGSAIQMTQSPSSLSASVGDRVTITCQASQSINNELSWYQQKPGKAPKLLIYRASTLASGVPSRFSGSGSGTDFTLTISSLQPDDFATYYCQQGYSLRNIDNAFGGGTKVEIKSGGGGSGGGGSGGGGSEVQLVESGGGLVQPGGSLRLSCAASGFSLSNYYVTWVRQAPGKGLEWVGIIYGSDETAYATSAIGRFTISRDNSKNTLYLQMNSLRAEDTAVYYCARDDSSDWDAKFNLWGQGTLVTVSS
light: B1 light
notes: Bispecific, tetravalent human IgG1-scFv fusion: Mab5 scFv (VL-VH) fused to the C-terminus of CH3 of Mab4
B3: Mab5 (antibody, human IgG1, kappa, V domains shown)
VH: EVQLVESGGGLVQPGGSLRLSCAASGFSLSNYYVTWVRQAPGKGLEWVGIIYGSDETAYATSAIGRFTISRDNSKNTLYLQMNSLRAEDTAVYYCARDDSSDWDAKFNLWGQGTLVTVSS
VL: AIQMTQSPSSLSASVGDRVTITCQASQSINNELSWYQQKPGKAPKLLIYRASTLASGVPSRFSGSGSGTDFTLTISSLQPDDFATYYCQQGYSLRNIDNAFGGGTKVEIKR
B4: DVD-45 (bispecific antibody, human IgG1, kappa)
heavy: not shown
light: DIVLTQSPASLAVSLGQRATISCRASESVGNFGISFMNWFQQKPGQPPKLLIYTASNQGSGVPARFSGSGSGTDFSLNIHPMEEDDSAMYFCQQSKEIPWTFGGGTKLEIKSPAPNLLGGPAIQMTQSPSSLSASVGDRVTITCQASQSINNELSWYQQKPGKAPKLLIYRASTLASGVPSRFSGSGSGTDFTLTISSLQPDDFATYYCQQGYSLRNIDNAFGGGTKVEIKRTVAAPSVFIFPPSDEQLKSGTASVVCLLNNFYPREAKVQWKVDNALQSGNSQESVTEQDSKDSTYSLSSTLTLSKADYEKHKVYACEVTHQGLSSPVTKSFNRGEC
notes: Bispecific, tetravalent human IgG1 dual variable domain IgG: variable domains of Mab4 appended to the N-termini of the variable domains of Mab5
B5: DVD-D5 (antibody)
heavy: not shown
light: DTQMTQSPSSLSASVGDRVTITCRASQSISSYLAWYQQKPGKAPKLLIYAASSLYSGVPSRFSGSGSGTDFTLTISSLQPEDFATYYCQQYSSLPYTFGQGTKLEIKSPAPNLLGGPAIQMTQSPSSLSASVGDRVTITCQASQSINNELSWYQQKPGKAPKLLIYRASTLASGVPSRFSGSGSGTDFTLTISSLQPDDFATYYCQQGYSLRNIDNAFGGGTKVEIKRTVAAPSVFIFPPSDEQLKSGTASVVCLLNNFYPREAKVQWKVDNALQSGNSQESVTEQDSKDSTYSLSSTLTLSKADYEKHKVYACEVTHQGLSSPVTKSFNRGEC
notes: Monospecific control: dual variable domain human IgG1 like DVD-45 but with the Mab4 VL replaced by a germline-like dummy VL

Assays:
human IL-6 [1] = biological target: T1, human IL-6 (human, UniProt P05231 30-212); experiment: cell-based or functional assay
[2] = biological target: T2, Human C1q (Calbiochem, 204876) (human, UniProt P02745 23-245; P02746 28-253; P02747 29-245); experiment: ELISA on coated human C1q; antibody preincubated with equimolar IL6 or without IL6; anti-human Fc HRP detection
T2 construct: Bought human C1q coated on ELISA plates; also called complement C1q; complement component C1q
Protocol: (§1) Determination of immune complex binding to complement C1q was performed using ELISA. Human C1q (Calbiochem, 204876) was coated onto maxisorp ELISA plates (NUNC, Denmark) at a concentration of 16 microgram/ml in a buffer containing 10 mM Tris HCl, pH 8 for 1 h and washed twice with 1× phosphate buffered saline supplemented with 0.1% Tween-20 (Merck KGaA, Germany, 8.17072.1000) (PBST). Plates were blocked with 2% skimmed milk powder (Roth, Germany T145.3) in PBST for 30 min and again washed twice with PBST. The prepared plates were then incubated with a preformed complex of antibody and IL6, at an equimolar IL6 and antibody binding site concentration of 11 nM, or with 11 nM antibody incubated without IL6, for 30 min.

[3] = biological target: T2, Human C1q (Calbiochem, 204876); experiment: ELISA on coated human C1q; preformed complex of antibody and IL6, 11 nM binding sites; anti-human Fc HRP detection
Protocol: as §1

human IL-6 [4] = biological target: T1, human IL-6; experiment: inferred from IL6-dependent signal in C1q ELISA; antibody preincubated with equimolar IL6 at 11 nM
Protocol: as §1

T2 sequence (P02745 23-245 limits assumed, chain 1 of 3): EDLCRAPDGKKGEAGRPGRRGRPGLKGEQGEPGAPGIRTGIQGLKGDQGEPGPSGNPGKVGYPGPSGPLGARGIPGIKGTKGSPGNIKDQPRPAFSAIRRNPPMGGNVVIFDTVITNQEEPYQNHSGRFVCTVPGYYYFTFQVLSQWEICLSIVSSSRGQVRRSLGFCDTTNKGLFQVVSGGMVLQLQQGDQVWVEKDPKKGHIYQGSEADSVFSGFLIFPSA
T2 sequence (P02746 28-253 limits assumed, chain 2 of 3): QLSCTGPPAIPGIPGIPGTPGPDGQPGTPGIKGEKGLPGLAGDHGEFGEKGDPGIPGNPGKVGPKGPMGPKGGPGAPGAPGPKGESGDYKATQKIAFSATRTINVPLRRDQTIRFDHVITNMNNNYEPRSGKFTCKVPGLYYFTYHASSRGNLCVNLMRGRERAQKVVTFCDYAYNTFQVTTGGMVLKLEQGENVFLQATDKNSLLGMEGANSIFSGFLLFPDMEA
T2 sequence (P02747 29-245 limits assumed, chain 3 of 3): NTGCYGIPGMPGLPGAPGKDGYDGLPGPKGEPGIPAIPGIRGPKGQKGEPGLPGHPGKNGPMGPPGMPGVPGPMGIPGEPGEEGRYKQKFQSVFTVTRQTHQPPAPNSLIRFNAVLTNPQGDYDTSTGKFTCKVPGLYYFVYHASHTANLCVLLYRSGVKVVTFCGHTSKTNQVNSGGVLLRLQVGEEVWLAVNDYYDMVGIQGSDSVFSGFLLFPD

Binder | IC50 on 7TD1 cells (pM) (human IL-6 [1]) | IC50 on B9 cells (pM) (human IL-6 [1]) | binding result [2] | binding result [3] | binding result (human IL-6 [4])
B1 | 2.6 pM | 8.4 pM | no binding (tested: 11 nM) |  | 
B2 |  |  |  | binds | binds
B3 | 19.9 pM | 26.1 pM |  |  | 
B4 | 1.3 pM | 2.9 pM |  | binds | 
B5 |  |  | no binding (tested: 11 nM) |  | 
